# Experimental data as given in publication PMC9405506, “Thermostable and O2-Insensitive Pyruvate Decarboxylases from Thermoacidophilic Archaea Catalyzing the Production of Acetaldehyde” (Biology, 2022).
# B1: SsPOR/PDC (Saccharolobus solfataricus) (protein)
# chain 1: MRISWMIGGAQGSGVDTSANIFGNAVAASGYYIYGNREYYSNIKGRHSYFNLTISDKPPRSIAQQIEILTSFDAETIFQHFNEVKDVLIYSTEVENTKAEQVQSMEPEITEHVVKFLKEKGYGTTVKDVINYLKKEKGVKVIPIDYMEILKKVADQAKVQLSVADRARNTIAIAASYKLLGLKEQYLINSITRTFRQEVFAKINTIAAQLAMQQIQPMYNLPELPNNEEKINLDGNTAAAIGKIYGGLRFQSYYPITPASDESVFIEAHQTVFTVDPKTGEKRKSTIVVVQAEDELAAINMASGAALTGVRAATATSGPGFSLMVEGMGWAGMNEVPVVITYYIRGGPSTGQPTRTSQADLMFALNAGHGEFPRIVIASGDHVEAFHDGTWALNLAQKYQTPVIHLVDKALANSYSIIPKKTLGMENIRIEKGKIVINTNTPELKRFEITEDGISPFAPLGTARVHYTGDEHDEYGFIAEASENREKMYEKRIKKLMTADKEIPEESRVNVYGNTDSKVAIITWGSPKGAILDAMEELENEGIKPMLIQIRMFSPFPKNLMRKLLNGKEFIIDVESNYFGQAGEVLKLNTGIEPTHYILKWNGRPMMRDEVKEGIKAVVQKGERRVVLHGGA
# chain 2: MAGLKVEWNDWCPGCGNFGILSAEQQAIQELGLDPKKVVLVSGIGCSGKIPHFIRLPASGVHTLHGRALTFAIGIKLANPSLEVIVNGGDGDQLGIGVGHFVSAGRRNVDLTVIVHNNGVYGLTKGQASPTLKLGVKTKSLPKPNINSDINPIALAISSGYTFVARGYAYDVKHLKEIIKKAIKHKGLAMIDVLQPCPTYNDIHTKEYYDKRVYKLDEDPSWDPIVKKPEEMDDKMSKAILKSMEWGDRTPIGIFYQNELVSTYEQRIAERSPSYLDNPPAHDVIEFEGKPTTDVEDILKERRVT
# notes: native, purified from cells by DEAE-Sepharose, hydroxyapatite and phenyl-Sepharose; heterodimer (alpha-beta), subunits 37 and about 65 kDa
# Assays:
# [1] = substrate: CC(=O)C(=O)O; assay: purified protein; type: biochemical, Saccharolobus solfataricus; details: POR (oxidative decarboxylation) reaction, 0.1 mM CoA, 1 mM benzyl viologen, 50 µM sodium dithionite, anaerobic, pH 8.0, 80 °C
# [2] = substrate: CC(=O)C(=O)O; assay: PDC activity: acetaldehyde by DNPH derivatization and HPLC, Michaelis-Menten fit; type: biochemical, Saccharolobus solfataricus; details: PDC (non-oxidative decarboxylation) reaction, 0.1 mM CoA, 100 mM sodium phosphate pH 7.9, 80 °C
# Description: PDC activity: acetaldehyde by DNPH derivatization and HPLC, Michaelis-Menten fit on SsPOR/PDC
protein,measurement,setting,value
B1,Km,[1],500 ± 100 µM
same,Vmax,[1],6.3 µmol/min/mg
same,Km,[2],1100 ± 200 µM
same,Vmax,[2],0.12 µmol/min/mg
